7 proteins from paper PMC10770755, “Effects of specific disease mutations in non-muscle myosin 2A on its structure and function” (The Journal of Biological Chemistry, 2023) can be followed below.

This series deals with the molecule itself. The series can be described thus: negative stain electron microscopy of filaments; self-assembly into filaments on dilution into low-salt buffer (10 mM phosphate, pH 7.4, 150 mM NaCl, 0.5 mM TCEP), on ice, 200 to 500 nM protein; stained with 1% uranyl acetate.

Positions count from the first letter of the chain named. In names and notes the source's numbering stands.

B1: GST-LMM, wild type (light meromyosin of human non-muscle myosin 2A heavy chain, residues 1212-1960) (domain or fragment, UniProt P35579 1212-1960, looked up)
chain: KANLEKAKQTLENERGELANEVKVLLQGKGDSEHKRKKVEAQLQELQVKFNEGERVRTELADKVTKLQVELDNVTGLLSQSDSKSSKLTKDFSALESQLQDTQELLQEENRQKLSLSTKLKQVEDEKNSFREQLEEEEEAKHNLEKQIATLHAQVADMKKKMEDSVGCLETAEEVKRKLQKDLEGLSQRHEEKVAAYDKLEKTKTRLQQELDDLLVDLDHQRQSACNLEKKQKKFDQLLAEEKTISAKYAEERDRAEAEAREKETKALSLARALEEAMEQKAELERLNKQFRTEMEDLMSSKDDVGKSVHELEKSKRALEQQVEEMKTQLEELEDELQATEDAKLRLEVNLQAMKAQFERDLQGRDEQSEEKKKQLVRQVREMEAELEDERKQRSMAVAARKKLEMDLKDLEAHIDSANKNRDEAIKQLRKLQAQMKDCMRELDDTRASREEILAQAKENEKKLKSMEAEMIQLQEELAAAERAKRQAQQERDELADEIANSSGKGALALEEKRRLEARIAQLEEELEEEQGNTELINDRLKKANLQIDQINTDLNLERSHAQKNENARQQLERQNKELKVKLQEMEGTVKSKYKASITALEAKIAQLEEQLDNETKERQAACKQVRRTEKKLKDVLLQVDDERRNAEQYKDQADKASTRLKQLKRQLEEAEEEAQRANASRRKLQRELEDATETADAMNREVSSLKNKLRRGDLPFVVPRRMARKGAGDGSDEEVDGKADGAEAKPAE
notes: pGEX-6P-1 adds GST and a PreScission site at the N-terminus; GST kept for EM; also called WT GST-LMM; source: E. coli Rosetta 2, purified (Glutathione Sepharose 4B); not shown: GST, N-terminal, kept
As to B1, the binding result was “binds”.

B2: GST-LMM D1424G (domain or fragment, human, UniProt P35579 1212-1960, looked up)
chain: B1 chain with D213G
notes: MYH9 disease mutation; source: E. coli Rosetta 2, purified (Glutathione Sepharose 4B); not shown: GST, N-terminal, kept
For B2, the binding result is reported as “binds”.

B3: GST-LMM D1447H (domain or fragment, human, UniProt P35579 1212-1960, looked up)
chain: B1 chain with D236H
notes: as for B2
Consider B3, for which the binding result is reported as “binds”.

B4: GST-LMM D1424N (domain or fragment, human, UniProt P35579 1212-1960, looked up)
chain: B1 chain with D213N
notes: as for B2
As for B4, the binding result is “binds”.

B5: GST-LMM V1516M (domain or fragment, human, UniProt P35579 1212-1960, looked up)
chain: B1 chain with V305M
notes: MYH9 disease mutation; also called V1615M [sic]; source: E. coli Rosetta 2, purified (Glutathione Sepharose 4B); not shown: GST, N-terminal, kept
In the case of B5, the binding result was “binds”.

B6: GST-LMM D1447G (domain or fragment, human, UniProt P35579 1212-1960, looked up)
chain: B1 chain with D236G
notes: as for B2
Take B6: the binding result was “binds”.

B7: GST-LMM E1841K (domain or fragment, human, UniProt P35579 1212-1960, looked up)
chain: B1 chain with E630K
notes: MYH9 disease mutation; also called E1814K [sic]; source: E. coli Rosetta 2, purified (Glutathione Sepharose 4B); not shown: GST, N-terminal, kept
Consider B7, for which the binding result was “binds”.
